{
  "source": "paper PMC10641069",
  "about": "“Intra- and inter-molecular regulation by intrinsically-disordered regions governs PUF protein RNA binding” (Nature Communications, 2023)",
  "molecules": {"B1": {"name": "FBF-2 RBD + CT Y479A: FBF-2 RBD + CT mutated in the R7-R8 loop (Y479A) (protein, UniProt Q09312 164-632, looked up, variant Y479A)", "chain": "SNNVLPTWSLDSNGEMRSRLSLSEVLDSGDLMKFAVDKTGCQFLEKAVKGSLTSYQKFQLFEQVIGRKDDFLKLSTNIFGNYLVQSVIGISLATNDDGYTKRQEKLKNFISSQMTDMCLDKFACRVIQSSLQNMDLSLACKLVQALPRDARLIAICVDQNANHVIQKVVAVIPLKNWEFIVDFVATPEHLRQICSDKYGCRVVQTIIEKLTADSMNVDLTSAAQNLRERALQRLMTSVTNRCQELATNEYANYIIQHIVSNDDLAVYRECIIEKCLMRNLLSLSQEKFASHVVEKAFLHAPLELLAEMMDEIFDGAIPHPDTGKDALDIMMFHQFGNYVVQCMLTICCDAVSGRRQTKEGGYDHAISFQDWLKKLHSRVTKERHRLSRFSSGKKMIETLANLRSTHPIYELQSSGHDSFKTDYFSTASEHDGPELEKNGIEEGSLMLEPRSNKSSVSVKFSSSGSHGDD"}},
  "key": {"[1]": {"system": "LST-1", "conditions": "Y479A mutation; cited from earlier work"}, "[2]": {"target": "gld-1 FBEa RNA", "assay": "Surface plasmon resonance, RNA-binding kinetics", "set-up": "species or system C. elegans", "experimental": "Kinetics of FBF-2 binding to the gld-1 FBEa RNA were measured using a 2-channel OpenSPR instrument (Nicoya). A 3′-biotin-labeled synthetic RNA was ordered from Horizon Discovery (gld-1 FBEa, 5′-AUCAUGUGCCAUACA-biotin-3′). The 3′-biotinylated RNA was immobilized on streptavidin-treated biotin sensor chips (Nicoya). All experiments were performed at 20 °C with a buffer of 20 mM HEPES, pH 7.4, 150 mM NaCl, and 2 mM DTT. SPR data were collected using OpenSPR (Nicoya, version 4.3). FBF-2 proteins were injected with a flow rate of 20 µl/min. Data were obtained at five different protein concentrations (25, 50, 100, 200, and 400 nM for wild type RBD + CT; 12.5, 25, 50, 100, and 200 nM for RBD + CT mutants and wild type RBD). Sensor chips were regenerated using 0.05% or 0.1% (v/v) SDS. For each experiment, five binding curves were simultaneously fit using a 1:1 binding model with the TraceDrawer software (Ridgeview Instruments, version 1.9.1). Mean values and standard deviation were calculated from two technical replicates. Despite our efforts, the fit of the binding curves for the association phase of FBF-2 RBD and FBF-2 RBD + CT mutants is poorer than the fit for FBF-2 RBD + CT WT. The appearance of the curves is consistent with the derived kon and koff values, and importantly, the curve fit for the dissociation phase is better."}, "[3]": {"assay": "Melting temperature of FBF-2 proteins", "type": "physicochemical", "experimental": "Mutants of FBF-2 RBD + CT: Y479A (5′-[…]), L610A (5′-[…]), and Loop6A (E592A, D594A, E597A, E599A, E604A, E605A; 5′-[…]) were generated by site-directed mutagenesis with the primers indicated. Plasmid sequences were verified by DNA sequencing (Azenta Life Sciences). Protein variants were expressed and purified like wild type proteins. Melting temperatures of wild type and mutant proteins were assessed by differential scanning […]. Reaction mixtures (total volume of 20 μl) contained ~0.3 mg/ml FBF-2 proteins and Sypro Orange dye (1:1000 dilution) (Sigma). Fluorescent intensity was collected from 25 °C to 95 °C (3 °C increment/min) with a real time PCR instrument (Applied Biosystems™ QuantStudio 7 Flex System) using excitation and emission wavelengths of 470 nm and 586 nm, respectively. Protein Thermal Shift^TM software (Applied Biosystems, version 1.4) was used to analyze protein melting curves and calculate melting temperatures (Tm)."}, "[4]": {"target": "gld-1 FBEa RNA", "assay": "Electrophoretic mobility shift assay (EMSA), RNA binding", "set-up": "species or system C. elegans", "experimental": "A 3′-Cy5-labeled synthetic RNA was ordered from IDT (gld-1 FBEa, 5′-[…]-3′). The FBF-2 proteins were serially diluted 2-fold from the highest concentration of 10 µM in the buffer used for gel filtration (20 mM HEPES pH 7.4, 150 mM NaCl, and 0.5 mM TCEP). 10 µl of the serially diluted protein samples were mixed with 10 µl RNA (10 nM) in a 2× buffer of 10 mM HEPES pH 7.4, 0.01% (v/v) Tween 20, 0.1 mg/ml BSA, 0.1 mg/ml yeast tRNA, and 2 mM DTT. For experiments in the presence of LST-1, LST-1 proteins at constant concentration were preincubated with FBF-2 at 4 °C for 2 h. The LST-1 concentrations were chosen based on their Kd’s for interaction with FBF-2. The final FBF-2 concentrations ranged from 5000 nM to 0.6 nM, and the LST-1 A or B concentrations were constant at 150 μM or 50 μM, respectively. The protein-RNA mixtures were incubated at 4 °C overnight. The samples were resolved on 10% TBE polyacrylamide gels run at constant voltage (100 V) with 1× TBE buffer at room temperature for 35 min. The gels were scanned and visualized with a Typhoon FLA 9500 imager using the Cy5 channel (excitation wavelength 635 nm). Band intensities were quantified with ImageQuant 5.2 (Cytiva). The data were fit with GraphPad Prism (version 9.2.0) using nonlinear regression with a one-site specific binding model. Mean Kd’s and standard error of the mean (SEM) from three or more technical replicates are reported (Supplementary Table 4). Full scan images for the replicates shown in the main figures and gel images for all replicates are included in a source data file."}, "[5]": {"conditions": "mean ± SD, two technical replicates, 20 °C, pH 7.4, 1:1 model"}},
  "note": "Values joined by “and” are separate entries in the source; they are usually repeats but may differ in a detail not shown here. Equal values may be shown once. Read-outs that look alike come from different tables or passages of the source.",
  "data": [
    {"molecule": "B1", "values": [
      {"measurement": "interaction with LST-1", "setting": "[1]", "result": "disrupts interaction between FBF-2 and LST-1"},
      {"measurement": "Kd", "setting": "[2]; derived from on/off rates, mean ± SD, two technical replicates", "result": "12.9 ± 6.4", "unit": "nM"},
      {"measurement": "koff", "setting": "[2]; [5]", "result": "1.18 ± 0.11 x10^-3 s^-1"},
      {"measurement": "kon", "setting": "[2]; [5]", "result": "10.2 ± 4.3 x10^4 M^-1 s^-1"},
      {"measurement": "Kd", "setting": "[2]; replicate 1", "result": 17.4, "unit": "nM"},
      {"measurement": "kon", "setting": "[2]; replicate 1", "result": 71900, "unit": "M⁻¹ s⁻¹"},
      {"measurement": "koff", "setting": "[2]; replicate 1, read-out: koff", "result": 0.00125, "unit": "s⁻¹"},
      {"measurement": "Kd", "setting": "[2]; replicate 2", "result": 8.3, "unit": "nM"},
      {"measurement": "kon", "setting": "[2]; replicate 2", "result": 133000, "unit": "M⁻¹ s⁻¹"},
      {"measurement": "koff", "setting": "[2]; replicate 2, read-out: koff", "result": 0.0011, "unit": "s⁻¹"},
      {"measurement": "thermal stability", "setting": "[3]; in words, vs RBD alone or vs RBD + CT", "result": "decreased the thermal stability"},
      {"measurement": "Tm", "setting": "[3]; mean ± SD, three technical replicates, ~0.3 mg/ml protein, Sypro Orange, 25 to 95 °C, fluorescence", "result": "35.25 ± 0.05", "unit": "°C"},
      {"measurement": "Tm", "setting": "[3]; replicate 1", "result": 35.30, "unit": "°C"},
      {"measurement": "Tm", "setting": "[3]; replicate 2", "result": 35.30, "unit": "°C"},
      {"measurement": "Tm", "setting": "[3]; replicate 3", "result": 35.16, "unit": "°C"},
      {"measurement": "Kd", "setting": "[4]", "result": "36 nM and 39 nM and 47 nM"},
      {"measurement": "Kd", "setting": "[4]; no LST-1, mean ± SEM of independent technical replicates (n = 3-5), 4 °C overnight, pH 7.4, Cy5-RNA 5′-AUCAUGUGCCAUAC-3′", "result": 62, "unit": "nM"},
      {"measurement": "Kd", "setting": "[4]; no LST-1, replicate 1", "result": 75, "unit": "nM"},
      {"measurement": "Kd", "setting": "[4]; no LST-1, replicate 2", "result": 64, "unit": "nM"},
      {"measurement": "Kd", "setting": "[4]; no LST-1, replicate 3", "result": 48, "unit": "nM"},
      {"measurement": "Kd", "setting": "[4]; pH 7.4", "result": "41 ± 6", "unit": "nM"}
    ]}
  ]
}
